# Test results as given in patent US20180002740.
# Tested on: VanR (phosphorylated) (Streptomyces coelicolor M600)
# Test: cell_activity
# Conditions: indirect: growth arrest about 18 h with 20 ug/ml vancomycin; 64 pM little effect
sequence,measurement,value
ATATCTATATGAAGCGACGTGGTCGATGAGCCGCAGCGTTTTCGCTGCGGCTCATCGACCACGTCGCTTCATATAGATATAGTTTTCT [vanH5 dumbbell decoy],activity,256 pM
